The source of these data is US20200087373A1 (UNIVERSITY OF COPENHAGEN, published 2020).

The target of assay [1] is T1, human GIP receptor (human, UniProt P48546 22-466).
T1 construct: whole, on cells; also called hGIPR
T1 sequence (looked up): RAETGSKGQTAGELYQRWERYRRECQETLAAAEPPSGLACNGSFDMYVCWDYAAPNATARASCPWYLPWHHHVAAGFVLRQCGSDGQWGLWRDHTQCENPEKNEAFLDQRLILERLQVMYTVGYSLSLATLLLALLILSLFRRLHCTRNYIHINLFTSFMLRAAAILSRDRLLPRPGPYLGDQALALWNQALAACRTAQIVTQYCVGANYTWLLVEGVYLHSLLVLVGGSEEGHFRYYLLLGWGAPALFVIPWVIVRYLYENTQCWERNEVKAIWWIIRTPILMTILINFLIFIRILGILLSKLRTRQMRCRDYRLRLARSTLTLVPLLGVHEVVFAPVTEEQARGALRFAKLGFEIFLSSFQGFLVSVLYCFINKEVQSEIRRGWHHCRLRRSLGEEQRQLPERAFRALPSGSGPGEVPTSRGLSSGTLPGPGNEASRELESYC
Briefly: 125I-hGIP competition binding, COS-7/hGIPR, 2% HSA.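 Further: nonspecific binding defined as radioligand binding to untransfected cells.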
Procedure: (§1) After incubation, the cells were washed twice in ice-cold binding buffer (+/−2% HSA) and lysed using 200 mM NaOH with 1% SDS for 30 min. Nonspecific binding was determined as the binding of radioactive ligand to untransfected cells.

Assay [2] has as its target T1, human GIP receptor. Briefly: 125I-hGIP competition binding, COS-7/hGIPR, 0.1% casein.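 Further: nonspecific binding defined as radioligand binding measured on untransfected cells.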
Procedure: as §1
For assay [3], the target named is T1, human GIP receptor. Nature of the assay: 125I-hGIP competition binding, COS-7 cells expressing hGIPR.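 Further: nonspecific binding taken as radioligand bound by untransfected cells, binding buffer with or without 2% HSA.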
Procedure: as §1
Assay [4] concerns the target T1, human GIP receptor. Nature of the assay: IC50 with 2% HSA over IC50 with 0.1% casein, 125I-hGIP competition, COS-7/hGIPR.
Procedure: as §1
Assay [5] addresses T1, human GIP receptor. Nature of the assay: cell-based or functional assay.

“And” between values parts separate entries of the source, which are not always exact repeats. Equal entries are not always repeated. Ends that are not written are not given here. * marks the point of attachment. C16 diacid = O=C(O)CCCCCCCCCCCCCCC(=O)*; Palmitoyl = CCCCCCCCCCCCCCCC(=O)*; Lauroyl = CCCCCCCCCCCC(=O)*

B1: AT118 [hGIP(5-30)NH2-C12/5] (peptide)
peptide: Lauroyl-TFISDYSIAMDKIHQQDFVNWLLAQK-NH2
SMILES: CCCCCCCCCCCC(=O)N[C@H](C(=O)N[C@@H](Cc1ccccc1)C(=O)N[C@H](C(=O)N[C@@H](CO)C(=O)N[C@@H](CC(=O)O)C(=O)N[C@@H](Cc1ccc(O)cc1)C(=O)N[C@@H](CO)C(=O)N[C@H](C(=O)N[C@@H](C)C(=O)N[C@@H](CCSC)C(=O)N[C@@H](CC(=O)O)C(=O)N[C@@H](CCCCN)C(=O)N[C@H](C(=O)N[C@@H](Cc1c[nH]cn1)C(=O)N[C@@H](CCC(N)=O)C(=O)N[C@@H](CCC(N)=O)C(=O)N[C@@H](CC(=O)O)C(=O)N[C@@H](Cc1ccccc1)C(=O)N[C@H](C(=O)N[C@@H](CC(N)=O)C(=O)N[C@@H](Cc1c[nH]c2ccccc12)C(=O)N[C@@H](CC(C)C)C(=O)N[C@@H](CC(C)C)C(=O)N[C@@H](C)C(=O)N[C@@H](CCC(N)=O)C(=O)N[C@@H](CCCCN)C(N)=O)C(C)C)[C@@H](C)CC)[C@@H](C)CC)[C@@H](C)CC)[C@@H](C)O
What is called IC50 is the point on the concentration scale where inhibition reaches its midpoint. Lower therefore signals greater potency. On to B1, for which, in assay [1], the IC50 came out at 881 nM and the logIC50 is -6.1 log M. In assay [2], this molecule displayed an IC50 of 115 nM and a logIC50 of -6.9 log M. In assay [3], the IC50 came to 102 nM and the “log IC50” value is -7 log M. Moreover, the “Fold change HSA (2%)/Casein (0.1%)” value in assay [4] was found to be 7.7 fold.

B2: AT135 [hGIP(5-30)NH2[K16R; K30R]-C16/5] (peptide)
peptide: Palmitoyl-TFISDYSIAMDRIHQQDFVNWLLAQR-NH2
SMILES: CCCCCCCCCCCCCCCC(=O)N[C@H](C(=O)N[C@@H](Cc1ccccc1)C(=O)N[C@H](C(=O)N[C@@H](CO)C(=O)N[C@@H](CC(=O)O)C(=O)N[C@@H](Cc1ccc(O)cc1)C(=O)N[C@@H](CO)C(=O)N[C@H](C(=O)N[C@@H](C)C(=O)N[C@@H](CCSC)C(=O)N[C@@H](CC(=O)O)C(=O)N[C@@H](CCCNC(=N)N)C(=O)N[C@H](C(=O)N[C@@H](Cc1c[nH]cn1)C(=O)N[C@@H](CCC(N)=O)C(=O)N[C@@H](CCC(N)=O)C(=O)N[C@@H](CC(=O)O)C(=O)N[C@@H](Cc1ccccc1)C(=O)N[C@H](C(=O)N[C@@H](CC(N)=O)C(=O)N[C@@H](Cc1c[nH]c2ccccc12)C(=O)N[C@@H](CC(C)C)C(=O)N[C@@H](CC(C)C)C(=O)N[C@@H](C)C(=O)N[C@@H](CCC(N)=O)C(=O)N[C@@H](CCCNC(=N)N)C(N)=O)C(C)C)[C@@H](C)CC)[C@@H](C)CC)[C@@H](C)CC)[C@@H](C)O
As to B2, the half-maximal inhibitory concentration (IC50) in assay [1] is 977 nM; in assay [2] it was 5940 nM; in assay [3], 5940 nM. The logIC50 in assay [1] is -6 log M; in assay [2] it was -5.2 log M. The “log IC50” value in assay [3] was -5.2 log M. Besides, in assay [4], the “Fold change HSA (2%)/Casein (0.1%)” value was found to be 0.2 fold.

B3: AT134 [hGIP(5-30)NH2[K16R; H18K; K30R]-C16/18] (peptide)
peptide: TFISDYSIAMDRIK(Palmitoyl)QQDFVNWLLAQR-NH2
modifications: N-terminus assumed
SMILES: CCCCCCCCCCCCCCCC(=O)NCCCC[C@H](NC(=O)[C@@H](NC(=O)[C@H](CCCNC(=N)N)NC(=O)[C@H](CC(=O)O)NC(=O)[C@H](CCSC)NC(=O)[C@H](C)NC(=O)[C@@H](NC(=O)[C@H](CO)NC(=O)[C@H](Cc1ccc(O)cc1)NC(=O)[C@H](CC(=O)O)NC(=O)[C@H](CO)NC(=O)[C@@H](NC(=O)[C@H](Cc1ccccc1)NC(=O)[C@@H](N)[C@@H](C)O)[C@@H](C)CC)[C@@H](C)CC)[C@@H](C)CC)C(=O)N[C@@H](CCC(N)=O)C(=O)N[C@@H](CCC(N)=O)C(=O)N[C@@H](CC(=O)O)C(=O)N[C@@H](Cc1ccccc1)C(=O)N[C@H](C(=O)N[C@@H](CC(N)=O)C(=O)N[C@@H](Cc1c[nH]c2ccccc12)C(=O)N[C@@H](CC(C)C)C(=O)N[C@@H](CC(C)C)C(=O)N[C@@H](C)C(=O)N[C@@H](CCC(N)=O)C(=O)N[C@@H](CCCNC(=N)N)C(N)=O)C(C)C
For B3, in assay [1], the IC50 worked out at 4890 nM and the logIC50 is -5.3 log M. In addition, in assay [2], the IC50 was determined as 882 nM and the logIC50 is -6.1 log M. In addition, in assay [3], the IC50 was 882 nM and the “log IC50” value is -6.1 log M. In addition, the “Fold change HSA (2%)/Casein (0.1%)” value in assay [4] is 5.5 fold.

B4: AT133 [hGIP(5-30)NH2[K16R; H18K; K30R]-C16/5] (peptide)
peptide: Palmitoyl-TFISDYSIAMDRIKQQDFVNWLLAQR-NH2
SMILES: CCCCCCCCCCCCCCCC(=O)N[C@H](C(=O)N[C@@H](Cc1ccccc1)C(=O)N[C@H](C(=O)N[C@@H](CO)C(=O)N[C@@H](CC(=O)O)C(=O)N[C@@H](Cc1ccc(O)cc1)C(=O)N[C@@H](CO)C(=O)N[C@H](C(=O)N[C@@H](C)C(=O)N[C@@H](CCSC)C(=O)N[C@@H](CC(=O)O)C(=O)N[C@@H](CCCNC(=N)N)C(=O)N[C@H](C(=O)N[C@@H](CCCCN)C(=O)N[C@@H](CCC(N)=O)C(=O)N[C@@H](CCC(N)=O)C(=O)N[C@@H](CC(=O)O)C(=O)N[C@@H](Cc1ccccc1)C(=O)N[C@H](C(=O)N[C@@H](CC(N)=O)C(=O)N[C@@H](Cc1c[nH]c2ccccc12)C(=O)N[C@@H](CC(C)C)C(=O)N[C@@H](CC(C)C)C(=O)N[C@@H](C)C(=O)N[C@@H](CCC(N)=O)C(=O)N[C@@H](CCCNC(=N)N)C(N)=O)C(C)C)[C@@H](C)CC)[C@@H](C)CC)[C@@H](C)CC)[C@@H](C)O
On to B4, for which, in assay [1], the IC50 was 2200 nM and the logIC50 is -5.7 log M. Further, in assay [2], the IC50 was 1720 nM and the logIC50 is -5.8 log M. Further, in assay [3], the IC50 was 1720 nM and the “log IC50” value is -5.8 log M. The “Fold change HSA (2%)/Casein (0.1%)” value in assay [4] stood at 1.3 fold.

B5: AT188 [hGIP(5-30)NH2[A28K]-C16diacid/28] (peptide)
peptide: TFISDYSIAMDKIHQQDFVNWLLK(C16 diacid)QK-NH2
modifications: N-terminus assumed
SMILES: CC[C@H](C)[C@H](NC(=O)[C@H](CO)NC(=O)[C@H](Cc1ccc(O)cc1)NC(=O)[C@H](CC(=O)O)NC(=O)[C@H](CO)NC(=O)[C@@H](NC(=O)[C@H](Cc1ccccc1)NC(=O)[C@@H](N)[C@@H](C)O)[C@@H](C)CC)C(=O)N[C@@H](C)C(=O)N[C@@H](CCSC)C(=O)N[C@@H](CC(=O)O)C(=O)N[C@@H](CCCCN)C(=O)N[C@H](C(=O)N[C@@H](Cc1c[nH]cn1)C(=O)N[C@@H](CCC(N)=O)C(=O)N[C@@H](CCC(N)=O)C(=O)N[C@@H](CC(=O)O)C(=O)N[C@@H](Cc1ccccc1)C(=O)N[C@H](C(=O)N[C@@H](CC(N)=O)C(=O)N[C@@H](Cc1c[nH]c2ccccc12)C(=O)N[C@@H](CC(C)C)C(=O)N[C@@H](CC(C)C)C(=O)N[C@@H](CCCCNC(=O)CCCCCCCCCCCCCCC(=O)O)C(=O)N[C@@H](CCC(N)=O)C(=O)N[C@@H](CCCCN)C(N)=O)C(C)C)[C@@H](C)CC
For the molecule B5, in assay [5], the “cAMP agonism” value came out at 152 nM; the “cAMP agonism, EC50 (log)” value was -7 log M and -6.8 log M; the “cAMP agonism, Emax” value was found to be 10; the “cAMP antagonism” value was determined as 152 nM. Further, the “cAMP antagonism, log” value in assay [5] was -6.8 log M. In assay [2], the IC50 was determined as 26300 nM and the logIC50 was -4.6 log M. In assay [3], the IC50 stood at 183 nM; the “log IC50” value is -6.7 log M and -6.74 log M.
